# Reference: US5997865
# Target: c-kit (mouse) (UniProt P05532)
substance,measurement,value
kit ligand,"expansion in cell number after 7 days of coculture on 7-4 stroma (AA4+ Kit+ Flk-2+ cells) (not stated (cell number, Table 2))",210
